This is an account of results in patent US20240010730A1 (SHANGHAI HUAOTA BIOPHARMACEUTICAL, published 2024).

The target in assay [1] is PD-L1 on CHO-K1-0S8-PD-L1-8D6 cells. The experiment in a line: cell-based or functional assay.
Assay [2] deals with Human PD-L1 (SPR analyte, Example 7) (human, UniProt Q9NZQ7 19-238, limits assumed). The experiment in a line: SPR (Biacore 8K), antibody captured by anti-human chip, antigen analyte, 1:1 model. The method, then:
(§1) The Anti-Human Capture-CMS chip (GE, #BR-1005-30) was prepared according to the method for conjugating the Human Antibody Capture Kit (GE, #BR-1008-39) to the Amino Conjugation Kit (GE, BR-1000-50).
Background: SPR reads the build-up and loss of mass on a sensor chip optically.

Assay [3] addresses T1, Human TIGIT (SPR analyte, Example 7) (human, UniProt Q495A1 22-141, limits assumed).
T1 sequence (looked up): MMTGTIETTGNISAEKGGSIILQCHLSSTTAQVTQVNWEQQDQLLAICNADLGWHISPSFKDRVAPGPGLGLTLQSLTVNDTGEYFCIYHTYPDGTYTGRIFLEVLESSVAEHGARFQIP
Described as above. The procedure:
as §1

In general, Kd refers to the concentration at which binding is half-saturated. High values mean weaker binding, low ones tighter binding. By koff is commonly meant a measure of how fast the partners let go of each other. Read a low koff as a long-lived complex. As usually defined, the kon is the second-order rate constant of association.

Chain of PD-L1 on CHO-K1-0S8-PD-L1-8D6 cells (Q9NZQ7 whole entry): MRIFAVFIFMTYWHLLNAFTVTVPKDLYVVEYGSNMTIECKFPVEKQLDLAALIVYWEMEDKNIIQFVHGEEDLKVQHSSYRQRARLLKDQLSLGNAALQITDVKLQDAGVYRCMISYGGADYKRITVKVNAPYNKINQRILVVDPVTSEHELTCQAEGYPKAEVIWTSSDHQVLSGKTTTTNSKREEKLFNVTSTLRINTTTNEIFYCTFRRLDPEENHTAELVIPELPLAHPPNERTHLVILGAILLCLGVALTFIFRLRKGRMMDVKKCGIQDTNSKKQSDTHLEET
Chain of Human PD-L1 (SPR analyte, Example 7) (Q9NZQ7 19-238 limits assumed): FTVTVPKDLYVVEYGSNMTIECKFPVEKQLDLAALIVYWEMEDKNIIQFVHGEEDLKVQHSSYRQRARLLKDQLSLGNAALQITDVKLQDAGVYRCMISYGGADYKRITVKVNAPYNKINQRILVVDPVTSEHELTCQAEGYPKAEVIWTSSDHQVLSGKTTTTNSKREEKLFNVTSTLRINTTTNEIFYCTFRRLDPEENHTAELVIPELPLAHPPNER

B1: 900691 (bispecific antibody, human IgG1, kappa)
heavy: not shown
light: DVVMTQTPLSLSVTPGQPASISCKSSQSLANSYGNTYLSWYLHKPGQSPQLLIYGISNRFSGVPDRFSGSGSGTDFTLKISRVEAEDVGVYYCLQGTHQPPTFGQGTKLEIKRTVAAPSVFIFPPSDEQLKSGTASVVCLLNNFYPREAKVQWKVDNALQSGNSQESVTEQDSKDSTYSLSSTLTLSKADYEKHKVYACEVTHQGLSSPVTKSFNRGEC
notes: also called PD-L1-IgG-TIGIT-scFv
As to B1, in assay [1], the “EC50 (nM), luciferase reporter, Jurkat-NFAT-PD-1-5B8 cells with CHO-K1-0S8-PD-L1-8D6 cells” value (from here on “EC50 (nM), luciferase reporter”) was found to be 1.84 nM. In assay [2], this molecule came in with a Kd of 2.24 nM, a koff of 0.000481 s⁻¹ and a kon of 214000 M⁻¹ s⁻¹. Moreover, in assay [3], the Kd was determined as 0.0925 nM, the koff was 9.13e-05 s⁻¹ and the kon was 987000 M⁻¹ s⁻¹.

B2: 900692 (bispecific antibody, human IgG1, kappa)
heavy: not shown
light: DVVMTQTPLSLSVTPGQPASISCKSSQSLANSYGNTYLSWYLHKPGQSPQLLIYGISNRFSGVPDRFSGSGSGTDFTLKISRVEAEDVGVYYCLQGTHQPPTFGQGTKLEIKRTVAAPSVFIFPPSDEQLKSGTASVVCLLNNFYPREAKVQWKVDNALQSGNSQESVTEQDSKDSTYSLSSTLTLSKADYEKHKVYACEVTHQGLSSPVTKSFNRGEC
notes: as for B1
On to B2, for which the “EC50 (nM), luciferase reporter” value in assay [1] amounted to 2.09 nM. In assay [2], this molecule came in with a Kd of 2.79 nM, a koff of 0.00057 s⁻¹ and a kon of 204000 M⁻¹ s⁻¹. In assay [3], this molecule yielded a Kd of 0.0751 nM, a koff of 9.11e-05 s⁻¹ and a kon of 1.21e+06 M⁻¹ s⁻¹.

B3: 900693 (bispecific antibody, human IgG1, kappa)
heavy: not shown
light: DVVMTQTPLSLSVTPGQPASISCKSSQSLANSYGNTYLSWYLHKPGQSPQLLIYGISNRFSGVPDRFSGSGSGTDFTLKISRVEAEDVGVYYCLQGTHQPPTFGQGTKLEIKRTVAAPSVFIFPPSDEQLKSGTASVVCLLNNFYPREAKVQWKVDNALQSGNSQESVTEQDSKDSTYSLSSTLTLSKADYEKHKVYACEVTHQGLSSPVTKSFNRGEC
notes: as for B1
Take B3: the “EC50 (nM), luciferase reporter” value in assay [1] was found to be 1.98 nM. In assay [2], this molecule gave a Kd of 2.27 nM, a koff of 0.000498 s⁻¹ and a kon of 219000 M⁻¹ s⁻¹. Besides, in assay [3], the Kd is 0.0863 nM, the koff stood at 8.03e-05 s⁻¹ and the kon is 930000 M⁻¹ s⁻¹.
